The text below walks through data of patent US20130266566A1 (AbbVie / Abbott, published 2013).

The target of assay [1] is T1, cynomolgus PAI-1 (cynomolgus, UniProt P05121 24-402 (human entry), limits assumed). In words: cell-based or functional assay.
Assay [2] addresses T2, mouse PAI-1 (mouse, UniProt P22777 24-401).
T2 sequence: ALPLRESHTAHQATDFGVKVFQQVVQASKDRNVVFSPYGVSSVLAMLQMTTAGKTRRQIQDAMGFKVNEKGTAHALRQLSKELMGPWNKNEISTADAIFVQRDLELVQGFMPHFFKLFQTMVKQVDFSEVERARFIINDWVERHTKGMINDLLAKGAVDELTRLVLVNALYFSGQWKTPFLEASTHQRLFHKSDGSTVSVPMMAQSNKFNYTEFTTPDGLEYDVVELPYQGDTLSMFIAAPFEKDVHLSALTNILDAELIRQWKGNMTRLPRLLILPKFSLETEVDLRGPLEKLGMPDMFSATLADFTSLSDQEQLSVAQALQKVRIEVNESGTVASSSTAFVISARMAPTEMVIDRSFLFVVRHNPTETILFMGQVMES
Kind of assay: cell-based or functional assay.

Assay [3] deals with T2, mouse PAI-1. In words: cell-based or functional assay. This is another data set of the same source.
Assay [4] concerns the target T1, cynomolgus PAI-1. Kind of assay: cell-based or functional assay. The source holds these as a separate data set.
In the next assay the target is T3, rat PAI-1 (rat, UniProt P20961 24-402).
T3 sequence: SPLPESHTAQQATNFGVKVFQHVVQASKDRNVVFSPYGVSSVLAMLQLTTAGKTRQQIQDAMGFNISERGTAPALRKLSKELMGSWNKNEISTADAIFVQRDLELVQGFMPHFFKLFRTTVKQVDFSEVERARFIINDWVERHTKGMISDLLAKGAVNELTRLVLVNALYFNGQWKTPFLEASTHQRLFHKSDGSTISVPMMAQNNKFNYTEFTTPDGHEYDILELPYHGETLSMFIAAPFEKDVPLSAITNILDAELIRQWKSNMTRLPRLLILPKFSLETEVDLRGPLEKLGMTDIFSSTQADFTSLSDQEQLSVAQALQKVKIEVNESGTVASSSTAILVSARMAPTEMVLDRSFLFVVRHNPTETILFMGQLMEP
In words: cell-based or functional assay.

In assay [5] the target is active human PAI-1, recombinant, wild-type, non-glycosylated (E. coli) (human, UniProt P05121 24-402). In words: cell-based or functional assay.
Assay [6] concerns the target T4, Antibody 16 IgG1, not germlined.
T4 construct: IgG1; also called Ab 16
In words: competition binding assay: Antibody 16 IgG adsorbed to the plate, biotinylated active human PAI-1 plus a titration of the unlabelled competitor, streptavidin-Europium detection.

B1: Antibody 08 scFv (scFv)
chain: QVQLVQSGAEVKKPGSSVKVSCKASGGTFSSYAISWVRQAPGQGLEWMGGIIPTFGTANYAQKFQGRVTITADESTSTAYMELSSLRSEDTAVYYCARERRQWLEGHFDYWGRGTLVTVSSDIQMTQSPSTLSASVGDRVTITCRASEGIYHNLAWYQQKPGKAPKLLIYKASSLASGVPSRFSGSRSGTEFTLTISSLQPDDFATYYCQQYSNYPLTFGGGTKVEIK
As to B1, in the assay with cynomolgus PAI-1 [1], the “IC50, cyno chromogenic assay (FIG. 2b)” value was 0.8 nM. For the same molecule, the “IC50, mouse chromogenic assay (FIG. 2d)” value in the assay with mouse PAI-1 [2] is 2.6 nM. The “HT-1080 Exo PAI-1 (IC50 in nM) mouse” value with mouse PAI-1 [3] worked out at 26.2 nM. Further, in the assay with cynomolgus PAI-1 [4], the “Chromogenic (IC50 in nM) cyno” value was found to be 1 nM and the “Chromogenic IC50 ratio cyno/human” value turned out to be 0.3 fold.

B2: PICK167_A01-fgl IgG1 (antibody, V domains shown)
VH: QVQLVQSGAEVKKPGSSVKVSCKASGGTFSSYAISWVRQAPGQGLEWMGGIIPTFGTANYAQKFQGRVTITADESTSTAYMELSSLRSEDTAVYYCARERRQWLEGHFDYWGRGTLVTVSS
VL: DIQMTQSPSTLSASVGDRVTITCRASEGIYHNLAWYQQKPGKAPKLLIYKASSLASGVPSRFSGSRSGTEFTLTISSLQPDDFATYYCQQYSNYPLTFGGGTKVEIKR
For B2, the “pIC50, HT1080 plasminogen activation assay” value in the assay with rat PAI-1 came to 7.64 pIC50; in assay [5] it was 7.87 pIC50.

B3: rabbit PAI-1 (other)
chain: SYPHQPQLTTAGETQQQIQAAMRFKIDEQSTAPALRHLHKELMGPWNKDEISTTDAIFVQRDLKLVQGFMPHFFRLFRTTVKQVDFSDVQRARFIINDWVERHTKGMISDLLGEGAMDQLTRLLLVNALYFNGQWKTPFSKSGTHHRLFHKSDGSTISVPMMAQTNKFNYTEFLTPDGHYYDILELPYHGETLSMFIAAPYEKQVPLSALTNILSAQLISQWKGNMTRVTRLLVLPKFSLESEVDLRAPLENLGMTDMFRPGQADFSNLSDQELLHVSRALQKVKIEVNESGTMASSSTVILVSARMAPEEIIMDRPFLFVVRHNPTGTILFLGQVMEL
Take B3: in assay [6], the “IC50 (read off the curve)” value was around 3 nM.
